The record followed here is FireProtDB (doi:10.1110/ps.051838206).

First the molecules themselves.
B1: Azurin, P00282 (parent)
chain: MLRKLAAVSLLSLLSAPLLAAECSVDIQGNDQMQFNTNAITVDKSCKQFTVNLSHPGNLPKNVMGHNWVLSTAADMQGVVTDGMASGLDKDYLKPDDSRVIAHTKLIGSGEKDSVTFDVSKLKEGEQYMFFCTFPGHSALMKGTLTLK

“And” between values parts separate entries of the source, which are not always exact repeats. Equal entries are not always repeated.

Variants of B1 are the subject of this data set. To be noted: Pseudomonas aeruginosa (strain ATCC 15692 / DSM 22644 / CIP 104116 / JCM 14847 / LMG 12228 / 1C / PRS 101 / PAO1), pH 7, 25 °C, GdnHCl, Tris-HCl 100 mM, reversible: Yes, structure 5AZU, whole UniProt chain shown.

Turning to I101T, where the note is “CD”, the “ddG of mutation (higher = less stable)” value was 2.51 kcal/mol and 3.35 kcal/mol; the unfolding free energy was 3.47 kcal/mol and 9.56 kcal/mol. For the setting “Fluorescence”, the “ddG of mutation (higher = less stable)” value was 2.51 kcal/mol and 3.35 kcal/mol; the unfolding free energy was 3.47 kcal/mol and 9.56 kcal/mol.
Consider I101A, for which, under “CD”, the “ddG of mutation (higher = less stable)” value was determined as 2.39 kcal/mol and the unfolding free energy amounted to 3.59 kcal/mol. For the same variant, for the setting “Fluorescence”, the “ddG of mutation (higher = less stable)” value was 2.39 kcal/mol and the unfolding free energy was found to be 3.59 kcal/mol.
As for I101V, the unfolding free energy (CD) is 5.9 kcal/mol and 12.7 kcal/mol; the unfolding free energy (Fluorescence) was 5.9 kcal/mol and 12.7 kcal/mol.
V51T: the unfolding free energy was 4.9 kcal/mol and 8.84 kcal/mol (CD); 4.9 kcal/mol and 8.84 kcal/mol (Fluorescence).
Regarding V42T, the unfolding free energy by setting is: (CD) 5.02 kcal/mol and 8.6 kcal/mol; (Fluorescence) 5.02 kcal/mol and 8.6 kcal/mol.
For the variant V42A, under “CD”, the “ddG of mutation (higher = less stable)” value amounted to 1.43 kcal/mol and the unfolding free energy is 4.54 kcal/mol.
On to V115T, for which the unfolding free energy is, setting by setting: (CD) 6.93 kcal/mol and 12.8 kcal/mol; (Fluorescence) 6.93 kcal/mol and 12.8 kcal/mol.
For the variant I40A, for the setting “Fluorescence”, the “ddG of mutation (higher = less stable)” value turned out to be 1.55 kcal/mol and the unfolding free energy was 4.42 kcal/mol.
Consider I40V, for which the unfolding free energy by setting is: (CD) 5.59 kcal/mol and 12.9 kcal/mol; (Fluorescence) 5.59 kcal/mol and 12.9 kcal/mol.
For the variant I40T, the “ddG of mutation (higher = less stable)” value reads like this: (CD) 2.39 kcal/mol and 1.91 kcal/mol; (Fluorescence) 2.39 kcal/mol and 1.91 kcal/mol.
Consider L70V, for which, where the note is “CD”, the “ddG of mutation (higher = less stable)” value is 0.36 kcal/mol and 0.24 kcal/mol; the unfolding free energy is 5.62 kcal/mol and 12.7 kcal/mol. Where the note is “Fluorescence”, the “ddG of mutation (higher = less stable)” value is 0.36 kcal/mol and 0.24 kcal/mol; the unfolding free energy is 5.62 kcal/mol and 12.7 kcal/mol.
L70T: for the setting “CD”, the “ddG of mutation (higher = less stable)” value is 2.34 kcal/mol and 2.15 kcal/mol; the unfolding free energy was 3.63 kcal/mol and 10.8 kcal/mol. Besides, where the note is “Fluorescence”, the “ddG of mutation (higher = less stable)” value is 2.15 kcal/mol and the unfolding free energy was 10.8 kcal/mol.
